Reference: patent publication US11911450B2, “Method for managing pain” (UNIVERSITY OF MIAMI, priority 2017, dated 2024)
“Also recorded” adds a separate entry of the source.

B1: Car10: carbonic anhydrase 10, rodent ortholog, overexpressed (V5-tagged) protein (protein)
chain: MEIVWEVLFLLQANFIVCISAQQNSPKIHEGWWAYKEVVQGSFVPVPSFWGLVNSAWNLCSVGKRQSPVNIETSHMIFDPFLTPLRINTGGRKVSGTMYNTGRHVSLRLDKEHLVNISGGPMTYSHRLEEIRLHFGSEDSQGSEHLLNGQAFSGEVQLIHYNHELYTNVTEAAKSPNGLVVVSIFIKVSDSSNPFLNRMLNRDTITRITYKNDAYLLQGLNIEELYPETSSFITYDGSMTIPPCYETASWIIMNKPVYITRMQMHSLRLLSQNQPSQIFLSMSDNFRPVQPLNNRCIRTNINFSLQGKDCPNNRAQKLQYRVNEWLLK
modifications: left off: small tags and cut ends
notes: carbonic anhydrase 10, rodent ortholog, overexpressed (V5-tagged) protein
B2: CA10: human carbonic anhydrase 10, overexpressed (V5-tagged) protein; SEQ ID NO: 9 (protein)
chain: B1 chain
modifications: V5 tag

Assays:
[1] = morphine dose vs paw withdrawal latency; format: in vivo, mouse; details: allometric conversion to 60 kg human
Experimental: Behavioral tests: Thermal and mechanical sensitivity was measured by Hargreaves test and von Frey filament threshold calculations respectively. See, e.g., Boyce-Rustay et al. Methods Mol Biol. 2010; 617:41-55; Hargreaves et al., Pain. 1988; 32(1):77-88; and Chaplan et al., J Neurosci Methods. 1994; 53(1):55-63. Tests were performed in a quiet room with daylight-like illumination. Animals were habituated to the behavioral room and apparatus for at least 60 minutes for 1 week before a blinded investigator collected data. The thermal sensitivity test was performed using an IITC Plantar Analgesia Meter apparatus (IITC Life sciences, Woodland Hills, CA) with a plastic box placed on a glass plate of constant temperature (30° C.). The mouse plantar surface was exposed to a beam of radiant heat to induced paw withdrawal. Baseline latencies were adjusted to 5-9 sec with a maximum of 20 sec as cutoff to prevent potential injury. The latency time in seconds from the onset of the intense light beam to paw withdrawal was defined as the withdrawal latency of the paw. […] The mouse hind paw was pressed with one of a series of von Frey filaments with logarithmically incrementing stiffness (Stoelting Co, Wood Dale, IL) presented perpendicular to the plantar surface of each hind paw for 1-2 seconds, the 50% threshold was determined using the Up- and Down method.

[2] = test system: RYR-dependent calcium release; assay: 5HT-induced RYR-dependent cytoplasmic calcium release in NBL cells (Fura2 imaging); format: cell-based, human; details: 50 μM 5HT, vs empty vector
Experimental: (§1) Pharmacodynamics—Bioassay of Calcium Release: Fifteen mm glass coverslips (cat #72228 Electron Microscopy Sciences, Hatfield, PA) were coated with poly-D-Lysine (Sigma) followed by Laminin and 1×10^5 cells were seeded on each coverslip. Twenty-four hrs later, cells were transfected with AAV2-ITR, AAV2-V5-Car10, or AAV2-V5-CA10 vectors as previously described. In embodiments wherein AAV2 is not employed, other expression vectors (including viral vectors) are used. Fura-2AM (cat #F1221 ThermoFisher scientific, Waltham, MA) was dissolved in DMSO (50 μg in 50 μl) and 1% pluronic acid-127 (cat #P2443 Sigma, St Louis, MO) as the stock solution. Forty eight hrs after seeding, cells were loaded with 2 μM Fura-2AM dye for 45 min at room temperature in the dark in a standard Ca+2 buffer solution containing: 125 mM NaCl, 2 mM MgCl, 4.5 mM KCl, 10 glucose, 20 mM HEPES, 2 mM CaCl2, pH 7.4.25. Following dye loading, coverslips were washed with Ca^+2 buffer solution. […] Regions of interest over the field of view were selected and the mean pixels intensity at each frame was measured. Data was plotted as ratio fluorescence intensity versus time and subsequently converted to a relative scale.
It was also determined that 5HT-induced RYR-dependent calcium release in NBL cells is inhibited by ryanodine. […]

[3] = test system: intracellular calcium release in NBL cells; assay: ATP-stimulated calcium release in NBL cells (Fura2 imaging); format: cell-based, human; details: 1 μM ATP, vs empty vector
Experimental: as §1, with “scale. […]” for “scale.”

Molecule | paw withdrawal latency elevation compared to morphine human oral equivalent dose [1] | 5HT-induced cytoplasmic calcium release, effect of overexpression ([2]; listed as V5-Car10) | ATP-stimulated calcium release [3] | 5HT-induced cytoplasmic calcium release, effect of overexpression ([2]; listed as V5-CA10)
B1 | produces profound analgesia | inhibited; also recorded: inhibits 50 μM 5HT-induced cytoplasmic calcium release |  | 
B2 | produces profound analgesia |  | inhibited | inhibited; also recorded: inhibits 50 μM 5HT-induced cytoplasmic calcium release
